The values below come from doi:10.1101/797027 (bioRxiv, 2019).

One assay deals with ubiquitin (UniProt P0CG48 1-76). Briefly: NMR titration.
The target in assay [1] is T1, hRpn10^305–377 (RAZUL, Rpn10 AZUL binding domain) (human, UniProt P55036 305-377).
T1 sequence (looked up): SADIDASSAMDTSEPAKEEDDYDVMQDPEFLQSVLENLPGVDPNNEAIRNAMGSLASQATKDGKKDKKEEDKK
The assay can be described thus: ITC. On the technique in general: In ITC the heat of successive injections is recorded.

The next assay deals with T2, GST-hRpn10^305–377 (human, UniProt P55036 305-377).
T2 sequence (looked up): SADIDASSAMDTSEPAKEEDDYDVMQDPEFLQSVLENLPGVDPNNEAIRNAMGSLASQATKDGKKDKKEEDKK
Briefly: SPR.

A word on the Kd: it is the equilibrium constant for the complex coming apart. High values mean lower affinity, low ones higher affinity.

B1: His-hRpn10^196–377 (domain or fragment)
chain: MLGLGASDFEFGVDPSADPELALALRVSMEEQRQRQEEEARRAAAASAAEAGIATTGTEDSDDALLKMTISQQEFGRTGLPDLSSMTEEEQIAYAMQMSLQGAEFGQAESADIDASSAMDTSEPAKEEDDYDVMQDPEFLQSVLENLPGVDPNNEAIRNAMGSLASQATKDGKKDKKEEDKK
B1: the binding result with ubiquitin is “binds”.

B2: E6AP AZUL domain, E6AP[24–87] (domain or fragment, human, UniProt Q05086 24-87, looked up)
chain: MKRAAAKHLIERYYHQLTEGCGNEACTNEFCASCPTFLRMDNNAAAIKALELYKINAKLCDPHP
For the molecule B2, the results for the dissociation constant Kd (in assay [1]; with GST-hRpn10^305–377) were 11.6 nM and 8.1 nM, respectively.
